Reference: patent US5147794

Test system: KasI restriction endonuclease (recombinant, cell extract) (Kluyvera ascorbata)
Experiment: cleavage_in_vitro
Settings: lambda DNA, 37 C, 1 h; nearly 10^6

“GGCGCC (double strand) [KasI recognition site (lambda DNA)]” showed an activity (units per gram of cells) of 1e+06.
